The subject of series [1] is dRBD #3L (LwaCas13a with hnRNP A1 RRM2 98-196 inserted between N415 and N416, catalytically inactive HEPN2) R1046A/H1051A (LwaCas13a numbering) (Leptotrichia wadei / Homo sapiens). As to the kind of experiment: EMSA.
Series [2] has as its system dRBD #4L (LwaCas13a with hnRNP C RRM 2-106 inserted between N415 and N416, catalytically inactive HEPN2) R1046A/H1051A (LwaCas13a numbering) (Leptotrichia wadei / Homo sapiens). Briefly: EMSA. (In general: In EMSA bound probe runs differently from free probe, usually more slowly.)
Series [3] deals with RBD #3L LwaCas13a (Leptotrichia wadei / Homo sapiens). Briefly: cleavage_in_vitro. The note with it: collateral cleavage of RNaseAlert.
Series [4] concerns T1, RBD #6L LwaCas13a (ADAR1 126-202 in Loop 1) (Leptotrichia wadei / Homo sapiens).
T1 sequence: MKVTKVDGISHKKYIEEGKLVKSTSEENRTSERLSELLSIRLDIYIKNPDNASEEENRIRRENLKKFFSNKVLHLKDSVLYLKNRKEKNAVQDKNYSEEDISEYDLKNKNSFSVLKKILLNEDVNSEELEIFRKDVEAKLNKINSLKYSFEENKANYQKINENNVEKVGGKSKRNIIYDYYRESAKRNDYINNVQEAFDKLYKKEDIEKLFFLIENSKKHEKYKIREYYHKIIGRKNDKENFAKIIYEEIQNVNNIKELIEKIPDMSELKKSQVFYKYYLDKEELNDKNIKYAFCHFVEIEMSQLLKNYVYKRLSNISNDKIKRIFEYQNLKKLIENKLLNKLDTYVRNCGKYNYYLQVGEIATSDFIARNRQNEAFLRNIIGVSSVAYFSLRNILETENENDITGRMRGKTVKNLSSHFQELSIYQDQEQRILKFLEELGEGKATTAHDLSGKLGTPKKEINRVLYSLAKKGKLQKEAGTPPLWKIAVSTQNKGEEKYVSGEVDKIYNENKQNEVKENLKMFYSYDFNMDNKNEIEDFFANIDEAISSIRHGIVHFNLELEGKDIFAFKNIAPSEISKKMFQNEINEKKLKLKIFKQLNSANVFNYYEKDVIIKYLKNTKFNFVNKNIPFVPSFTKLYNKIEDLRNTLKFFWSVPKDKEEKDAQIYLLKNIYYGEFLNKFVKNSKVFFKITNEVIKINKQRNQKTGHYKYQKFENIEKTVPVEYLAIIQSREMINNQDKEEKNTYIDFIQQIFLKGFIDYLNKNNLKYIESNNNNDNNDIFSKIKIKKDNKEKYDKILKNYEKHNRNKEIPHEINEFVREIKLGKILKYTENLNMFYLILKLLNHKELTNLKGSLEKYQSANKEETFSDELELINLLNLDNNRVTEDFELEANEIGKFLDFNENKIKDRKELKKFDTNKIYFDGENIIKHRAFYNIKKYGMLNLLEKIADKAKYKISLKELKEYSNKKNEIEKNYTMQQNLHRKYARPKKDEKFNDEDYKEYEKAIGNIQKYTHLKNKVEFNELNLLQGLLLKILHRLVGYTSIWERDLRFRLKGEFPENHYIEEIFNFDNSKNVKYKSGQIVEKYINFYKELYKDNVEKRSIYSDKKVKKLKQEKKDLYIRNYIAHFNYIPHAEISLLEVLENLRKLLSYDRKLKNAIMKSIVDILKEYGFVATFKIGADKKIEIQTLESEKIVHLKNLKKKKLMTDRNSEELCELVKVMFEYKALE
Briefly: cleavage_in_vitro. The note with it: collateral cleavage of RNaseAlert.

For series [5], the system named is RBD #2L LwaCas13a (hnRNP A1 1-104 in Loop 1) (Leptotrichia wadei / Homo sapiens). As to the kind of experiment: cleavage_in_vitro. The note with it: collateral cleavage of RNaseAlert.
Series [6] deals with RBD #4L LwaCas13a (Leptotrichia wadei / Homo sapiens). As to the kind of experiment: cleavage_in_vitro. The settings on record: collateral cleavage of RNaseAlert.
Where [7] appears, read: crRNA complex, 50 mM Tris pH 8.0, 60 mM NaCl, 5 mM MgCl2, 37 C.
Where [8] appears, read: crRNA complex, 5 mM MgCl2, 37 C.
The mark [9] stands for this setting: collateral reporter binding by cr1/T1-bound complex, pH 7.5, 5 mM MgCl2, 0.01% Triton X-100.

One may read the Kd as the equilibrium constant for the complex coming apart. High values mean lower affinity, low ones higher affinity.

For the sequence “GACUACCCCAAAAACGAAGGGGACUAAAACAAUCUGAGGGUCCACCAAACGUAAUGCG / ACCCCGCAUUACGUUUGGUGGACCCUCAGAUUCAAC [cr1_N crRNA ; T26_N_2 target (36 nt)]”, the Kd in series [1] (setting [7]) turned out to be 23 nM; in series [2] (setting [7]) it was 18 nM.
On to “GACUACCCCAAAAACGAAGGGGACUAAAACAAUCUGAGGGUCCACCAAACGUAAUGCG / GUCUGAUAAUGGACCCCAAAAUCAGCGAAAUGCACCCCGCAUUACGUUUGGUGGACCCUCAGAUUCAACUGGCAGUAACCAGAAUGGAGAACGCAGUGGGGCGCG [cr1_N crRNA ; T1_N target (105 nt)]”, for which the Kd in series [1] (setting [8]) was determined as 12 nM; in series [2] (setting [8]), 11 nM.
In the case of “GACUACCCCAAAAACGAAGGGGACUAAAACUCACUCAAUACUUGAGCACACUCAUUAG / GUGAUAGAGCCAUGCCUAACAUGCUUAGAAUUAUGGCCUCACUUGUUCUUGCUCGCAAACAUACAACGUGUUGUAGCUUGUCACACCGUUUCUAUAGAUUAGCUAAUGAGUGUGCUCAAGUAUUGAGUGAAAUGGUCAUGUGUGGCGGUUCACUAUAUGUUAAACCAGGUGGAACCUCAUCAGGAGAUGCCACAACUGCUUAUGCUAAUAGUGUUUUUAACAUUUGU [cr2_RdRp crRNA ; T2_RdRp target]”, the binding signal (% higher than WT) in series [3] came to 264; in series [4], 171; in series [5] it was 164; in series [6], 241.
Consider UUUUUUUUUUUUUUUUUUUU [U20 reporter], for which the Kd in series [1] (setting [9]) was found to be 230 nM; in series [2] (setting [9]), 150 nM.

The values above are taken from US20250019680.
